According to patent US6518412B1, “Gene therapy approaches to supply apolipoprotein A-I agonists and their use to treat dyslipidemic disorders” (priority 1997, dated 2003):

Tests used:
Format in all cases: physicochemical
[1] = Circular dichroism, degree of helicity (free, SUVs, micelles, TFE)
Protocol: Far UV circular dichroism spectra were recorded between 190 and 260 nm (in 0.5 nm or 0.2 nm increments) with a AVIV62DS spectrometer (AVIV Associates, Lakewood, N.J., USA) equipped with a thermoelectric cell holder and sample changer. The instrument was calibrated with (+)-10-[…]. Between one and three scans were collected for each sample, using 10 cm, 5 cm, 1 cm and 0.1 cm path length quartz Suprasil cells, respectively, for peptide concentrations of 10^−7 M to 10^−4 M. The bandwidth was fixed at 1.5 nm and the scan speed to is per wavelength step. The reported data are the mean of at least 2 or 3 independent measurements.
After background substraction, spectra were converted to molar ellipticity (θ) per residue in deg. […] dmol^−1. The peptide concentration was determined by amino acid analysis and also by absorption spectrometry on a Perkin Elmer Lambda 17 UV/Visible spectrophotometer when the peptide contained a chromophore (tryptophane, dansyl, naphtylalanine). […]
All spectra were recorded at 37° C. The stability of peptide 210 (SEQ ID NO:210) as a function of temperature (both free in buffer and in micelles) was determined by recording spectra at a series of different temperatures.
The degree of helicity of peptide 210 (SEQ ID NO:210) as a function of concentration was also determined.
The degree of helicity of the peptides in the various conditions was determined from the mean residue ellipticity at 222 nm (Chen et al., 1974, Biochemistry 13:3350-3359) or by comparing the CD spectra obtained to reference spectra available on databases (16 helical reference spectra from Provencher & Glockner, 1981, Biochemistry 20:33-37; denatured protein reference spectra from Venyaminov et al., 1993, Anal. Biochem. 214:17-24) using the CONTIN curve-fitting algorithm version 2DP, CD-1 pack (August 1982) (Provencher, 1982, Comput. Phys. Commun. 27:213-227, 229-242). Acceptable fit was determined using the statistical analysis methodology provided by the CONTIN algorithm. […]

[2] = NMR analysis of peptide structure; conditions: 25% TFE at 295 K
Protocol: Samples were prepared by dissolving 5 mg of peptide in 90% H2O/10% D2O containing trace amounts of 2,2-Dimethyl-2-sila-5-pentane sulfonate (DSS) as an internal chemical shift reference. Some of the samples contained trifluoroethanol (TFE) (expressed as % vol). The total sample volume was 500 μl and the concentration of peptide was approximately 5 mM.
^1H NMR spectra were acquired at 500 MHz using a Bruker DRX500 spectrometer equipped with a B-VT2000 temperature control unit. One and two-dimensional experiments were recorded using standard pulse sequences. (Two Dimensional NMR Spectroscopy, Eds. W. R. Croasmun and RMK Carlson, 1994, VCH Publishers, New York, USA). […] Two-dimensional experiments were carried out in the phase sensitive mode using time proportional phase incrementation (TPPI) and a spectral width of 6000 Hz in both dimensions. Typically, 40 scans were co-added for 400 t1 increments with 2048 data points. […]
Complete proton resonance assignments were obtained by applying the sequential assignment technique using DQFCOSY, TOCSY and NOESY spectra as described in the literature (Wuthrich, NMR of Proteins and Nucleic Acids, 1986, John Wiley & Sons, New York, USA). Secondary chemical shifts were calculated for HN and Ha protons by subtracting the tabulated random coil chemical shifts (Wishart and Sykes, 1994, Method. Enz. 239:363-392) from the corresponding experimental values.

[3] = Superose 6 gel filtration chromatography of peptide-lipid complexes; conditions: 1 mg peptide and 3 mgs DPPC, colyophilized, 0.9% NaCl
Protocol: One mg of peptide 149 ([…]; SEQ ID NO:149) was dissolved in 250 μl HPLC grade methanol (Perkin Elmer) in a one ml clear glass vial with cap (Waters #WAT025054). Dissolving of the peptide was aided by occasional vortexing over a period of 10 minutes at room temperature. To this mixture an aliquot containing 3 mg dipalmitoyl-phosphatidyl-choline (DPPC; Avanti Polar Lipids, 99% Purity, product #850355) from a 100 mg/ml stock solution in methanol was added. The volume of the mixture was brought to 400 μl by addition of methanol, and the mixture was further vortexed intermittently for a period of 10 minutes at room temperature. To the tube 200 μl of xylene (Sigma-Aldrich 99% pure, HPLC-grade) was added and the tubes were vortexed for 10 seconds. […]
Peptide-phospholipid complexes containing peptide 149 (SEQ ID NO:149) were prepared by colyophilization as described above. […] The chromatography was monitored by absorbance or scattering of light of wavelength 280 nm. […] The vast majority of both phospholipid and UV absorbance were recovered together in a few fractions with peaks at approximately 15.8 mls. […]
For comparison, a separate chromatogram of 20 μl of human HDL2 was run under the same conditions and using the same column as the peptide 149 complexes. […] The column eluate was monitored by absorbance or scattering of light of wavelength 254 nm. […]

Row | Sequence | stability of α-helical structure with temperature [1] | helicity in the presence of TFE ([1]; TFE) | helicity ([1]; in micelles) [%] | conformation from Hα secondary shifts [2] | Stokes' diameter [3] [Angstroms]
1 | PVLDLFRELLEELKQKLK [peptide 210] | completely stable | increases | 63 | highly helical conformation | 
2 | PVLELFENLWERLLDALQKKLK [peptide 149] |  |  |  |  | 87
